Test results published in PMC4329186.

Molecular target: human alpha-thrombin (human, UniProt P00734;P00734 328-363;364-622)
Assay: ctITP-NECEEM capillary electrophoresis; no metal ions; 400 nM thrombin; Tris-HCl sample buffer, no added metal ions, 30 min incubation; Tris and glycine reagents for CE; pH and temperature not given in the material

B1: 29mer thrombin aptamer with Ion Torrent primer handles and spacer (97 nt) (structured_DNA)
DNA: CCTCTCTATGGGCAGTCGGTGATAGTCCGTGGTAGGGCAGGTTGGGGTGACTTAAGGAGTTCAATATCTGAGTCGGAGACACGCAGGGATGAGATGG
- binding result: binds
